Test results reported in PMC11876703, “Structural basis for human NKCC1 inhibition by loop diuretic drugs” (The EMBO Journal, 2025).

T1: phospho-activated human NKCC1 (Na+-K+-Cl- cotransporter 1) (human), P55011
T1 chain: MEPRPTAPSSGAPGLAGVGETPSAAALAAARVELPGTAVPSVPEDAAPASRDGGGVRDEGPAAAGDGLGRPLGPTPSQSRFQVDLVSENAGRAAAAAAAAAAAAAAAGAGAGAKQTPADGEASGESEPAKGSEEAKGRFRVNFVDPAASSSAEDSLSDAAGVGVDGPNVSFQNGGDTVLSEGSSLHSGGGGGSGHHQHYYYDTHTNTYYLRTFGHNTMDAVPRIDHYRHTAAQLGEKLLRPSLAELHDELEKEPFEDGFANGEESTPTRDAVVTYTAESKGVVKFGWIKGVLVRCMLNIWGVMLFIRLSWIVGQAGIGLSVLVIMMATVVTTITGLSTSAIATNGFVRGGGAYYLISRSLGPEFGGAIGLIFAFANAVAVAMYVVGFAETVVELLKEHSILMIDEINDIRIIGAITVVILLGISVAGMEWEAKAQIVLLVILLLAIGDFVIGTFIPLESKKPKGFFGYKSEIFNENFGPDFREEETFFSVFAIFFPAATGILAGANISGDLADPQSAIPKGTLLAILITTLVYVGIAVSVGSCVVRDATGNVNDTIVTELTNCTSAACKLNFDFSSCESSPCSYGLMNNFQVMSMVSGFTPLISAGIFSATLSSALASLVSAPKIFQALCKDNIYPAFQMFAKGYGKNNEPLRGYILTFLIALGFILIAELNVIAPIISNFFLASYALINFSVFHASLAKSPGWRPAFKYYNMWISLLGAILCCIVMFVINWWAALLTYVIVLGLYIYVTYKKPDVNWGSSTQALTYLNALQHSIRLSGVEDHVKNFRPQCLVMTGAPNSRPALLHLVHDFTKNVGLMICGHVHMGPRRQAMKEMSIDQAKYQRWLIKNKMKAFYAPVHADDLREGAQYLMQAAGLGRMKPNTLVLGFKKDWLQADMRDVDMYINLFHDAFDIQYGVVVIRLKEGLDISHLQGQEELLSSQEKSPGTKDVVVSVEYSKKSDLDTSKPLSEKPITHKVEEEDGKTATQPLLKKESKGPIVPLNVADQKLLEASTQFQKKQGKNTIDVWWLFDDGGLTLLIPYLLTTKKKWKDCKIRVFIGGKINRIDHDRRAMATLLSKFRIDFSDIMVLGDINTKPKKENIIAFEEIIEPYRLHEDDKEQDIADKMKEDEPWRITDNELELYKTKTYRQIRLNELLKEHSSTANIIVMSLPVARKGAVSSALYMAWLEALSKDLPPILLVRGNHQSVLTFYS

B1: phospho-activated human NKCC1 (Na+-K+-Cl- cotransporter 1), P55011 1-1212 (natural protein)
chain: MEPRPTAPSSGAPGLAGVGETPSAAALAAARVELPGTAVPSVPEDAAPASRDGGGVRDEGPAAAGDGLGRPLGPTPSQSRFQVDLVSENAGRAAAAAAAAAAAAAAAGAGAGAKQTPADGEASGESEPAKGSEEAKGRFRVNFVDPAASSSAEDSLSDAAGVGVDGPNVSFQNGGDTVLSEGSSLHSGGGGGSGHHQHYYYDTHTNTYYLRTFGHNTMDAVPRIDHYRHTAAQLGEKLLRPSLAELHDELEKEPFEDGFANGEESTPTRDAVVTYTAESKGVVKFGWIKGVLVRCMLNIWGVMLFIRLSWIVGQAGIGLSVLVIMMATVVTTITGLSTSAIATNGFVRGGGAYYLISRSLGPEFGGAIGLIFAFANAVAVAMYVVGFAETVVELLKEHSILMIDEINDIRIIGAITVVILLGISVAGMEWEAKAQIVLLVILLLAIGDFVIGTFIPLESKKPKGFFGYKSEIFNENFGPDFREEETFFSVFAIFFPAATGILAGANISGDLADPQSAIPKGTLLAILITTLVYVGIAVSVGSCVVRDATGNVNDTIVTELTNCTSAACKLNFDFSSCESSPCSYGLMNNFQVMSMVSGFTPLISAGIFSATLSSALASLVSAPKIFQALCKDNIYPAFQMFAKGYGKNNEPLRGYILTFLIALGFILIAELNVIAPIISNFFLASYALINFSVFHASLAKSPGWRPAFKYYNMWISLLGAILCCIVMFVINWWAALLTYVIVLGLYIYVTYKKPDVNWGSSTQALTYLNALQHSIRLSGVEDHVKNFRPQCLVMTGAPNSRPALLHLVHDFTKNVGLMICGHVHMGPRRQAMKEMSIDQAKYQRWLIKNKMKAFYAPVHADDLREGAQYLMQAAGLGRMKPNTLVLGFKKDWLQADMRDVDMYINLFHDAFDIQYGVVVIRLKEGLDISHLQGQEELLSSQEKSPGTKDVVVSVEYSKKSDLDTSKPLSEKPITHKVEEEDGKTATQPLLKKESKGPIVPLNVADQKLLEASTQFQKKQGKNTIDVWWLFDDGGLTLLIPYLLTTKKKWKDCKIRVFIGGKINRIDHDRRAMATLLSKFRIDFSDIMVLGDINTKPKKENIIAFEEIIEPYRLHEDDKEQDIADKMKEDEPWRITDNELELYKTKTYRQIRLNELLKEHSSTANIIVMSLPVARKGAVSSALYMAWLEALSKDLPPILLVRGNHQSVLTFYS
modifications: here or on the partner: phosphothreonine at Thr212, Thr217 and Thr230 (verified by mass spectrometry); Thr203, Thr205 and Thr207 also named as phosphoacceptor sites confirmed by mass spectrometry; phosphothreonine at Thr212, Thr217 and Thr230 (verified by mass spectrometry); Thr203, Thr205 and Thr207 also named as phosphoacceptor sites confirmed by mass spectrometry
B2: phospho-activated human NKCC1 bearing K289N and A492E mutations (natural protein, UniProt P55011 1-1212, looked up)
chain: MEPRPTAPSSGAPGLAGVGETPSAAALAAARVELPGTAVPSVPEDAAPASRDGGGVRDEGPAAAGDGLGRPLGPTPSQSRFQVDLVSENAGRAAAAAAAAAAAAAAAGAGAGAKQTPADGEASGESEPAKGSEEAKGRFRVNFVDPAASSSAEDSLSDAAGVGVDGPNVSFQNGGDTVLSEGSSLHSGGGGGSGHHQHYYYDTHTNTYYLRTFGHNTMDAVPRIDHYRHTAAQLGEKLLRPSLAELHDELEKEPFEDGFANGEESTPTRDAVVTYTAESKGVVKFGWINGVLVRCMLNIWGVMLFIRLSWIVGQAGIGLSVLVIMMATVVTTITGLSTSAIATNGFVRGGGAYYLISRSLGPEFGGAIGLIFAFANAVAVAMYVVGFAETVVELLKEHSILMIDEINDIRIIGAITVVILLGISVAGMEWEAKAQIVLLVILLLAIGDFVIGTFIPLESKKPKGFFGYKSEIFNENFGPDFREEETFFSVFEIFFPAATGILAGANISGDLADPQSAIPKGTLLAILITTLVYVGIAVSVGSCVVRDATGNVNDTIVTELTNCTSAACKLNFDFSSCESSPCSYGLMNNFQVMSMVSGFTPLISAGIFSATLSSALASLVSAPKIFQALCKDNIYPAFQMFAKGYGKNNEPLRGYILTFLIALGFILIAELNVIAPIISNFFLASYALINFSVFHASLAKSPGWRPAFKYYNMWISLLGAILCCIVMFVINWWAALLTYVIVLGLYIYVTYKKPDVNWGSSTQALTYLNALQHSIRLSGVEDHVKNFRPQCLVMTGAPNSRPALLHLVHDFTKNVGLMICGHVHMGPRRQAMKEMSIDQAKYQRWLIKNKMKAFYAPVHADDLREGAQYLMQAAGLGRMKPNTLVLGFKKDWLQADMRDVDMYINLFHDAFDIQYGVVVIRLKEGLDISHLQGQEELLSSQEKSPGTKDVVVSVEYSKKSDLDTSKPLSEKPITHKVEEEDGKTATQPLLKKESKGPIVPLNVADQKLLEASTQFQKKQGKNTIDVWWLFDDGGLTLLIPYLLTTKKKWKDCKIRVFIGGKINRIDHDRRAMATLLSKFRIDFSDIMVLGDINTKPKKENIIAFEEIIEPYRLHEDDKEQDIADKMKEDEPWRITDNELELYKTKTYRQIRLNELLKEHSSTANIIVMSLPVARKGAVSSALYMAWLEALSKDLPPILLVRGNHQSVLTFYS
modifications: phosphothreonine at Thr212, Thr217 and Thr230 (verified by mass spectrometry; pT212 and pT217 clearly seen in the map, pT230 tentatively modeled); Thr203, Thr205 and Thr207 also named as phosphoacceptor sites confirmed by mass spectrometry
notes: Used for the furosemide/ATP-Mg2+ co-structure; The tag was used for Strep-Tactin purification and no cleavage step is described; also called pNKCC1; NKCC1 (furosemide co-structure); source: calyculin-A treated; purified (Strep-Tactin resin, Superose 6) in GDN with 100 uM ATP

Key:
[1] = biological target: T1, phospho-activated human NKCC1 …; assay: cryo-EM structure; purified pNKCC1 in GDN, 20 mM HEPES pH 7.4, with 100 uM bumetanide, 100 uM torsemide (K+-free buffer) or 2 mM furosemide plus 100 uM ATP; homodimer; conditions: remark: other sources report otherwise
[2] = biological target: the molecule itself; assay: as above

| Binder | stoichiometry N [1] | stoichiometry N [2] |
| --- | --- | --- |
| B1 | 2 |  |
| B2 |  | 2 |
